Data set [1] addresses T1, POT1-K90E (human, UniProt Q9NUX5 1-634, K90E).
T1 sequence: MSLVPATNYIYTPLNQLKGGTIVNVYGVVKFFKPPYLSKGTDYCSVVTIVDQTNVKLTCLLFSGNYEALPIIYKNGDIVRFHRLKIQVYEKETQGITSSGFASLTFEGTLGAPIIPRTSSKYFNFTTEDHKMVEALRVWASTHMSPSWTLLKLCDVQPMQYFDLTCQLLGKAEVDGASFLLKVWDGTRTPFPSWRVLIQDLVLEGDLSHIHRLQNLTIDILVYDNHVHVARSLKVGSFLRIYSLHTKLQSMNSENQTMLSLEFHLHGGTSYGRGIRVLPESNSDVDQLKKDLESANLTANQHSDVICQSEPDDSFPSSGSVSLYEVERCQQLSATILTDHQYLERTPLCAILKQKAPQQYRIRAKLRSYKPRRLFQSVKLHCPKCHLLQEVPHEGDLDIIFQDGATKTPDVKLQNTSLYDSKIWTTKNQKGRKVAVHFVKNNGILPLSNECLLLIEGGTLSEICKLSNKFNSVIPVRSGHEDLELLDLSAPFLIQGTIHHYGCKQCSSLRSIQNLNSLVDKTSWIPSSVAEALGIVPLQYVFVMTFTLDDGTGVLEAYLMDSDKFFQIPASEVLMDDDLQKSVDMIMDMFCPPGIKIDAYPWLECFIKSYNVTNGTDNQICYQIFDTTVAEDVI
Put plainly: EMSA. A general note: In EMSA bound probe runs differently from free probe, usually more slowly.

Data set [2] concerns the target T2, POT1 WT (human, UniProt Q9NUX5 1-634).
T2 sequence: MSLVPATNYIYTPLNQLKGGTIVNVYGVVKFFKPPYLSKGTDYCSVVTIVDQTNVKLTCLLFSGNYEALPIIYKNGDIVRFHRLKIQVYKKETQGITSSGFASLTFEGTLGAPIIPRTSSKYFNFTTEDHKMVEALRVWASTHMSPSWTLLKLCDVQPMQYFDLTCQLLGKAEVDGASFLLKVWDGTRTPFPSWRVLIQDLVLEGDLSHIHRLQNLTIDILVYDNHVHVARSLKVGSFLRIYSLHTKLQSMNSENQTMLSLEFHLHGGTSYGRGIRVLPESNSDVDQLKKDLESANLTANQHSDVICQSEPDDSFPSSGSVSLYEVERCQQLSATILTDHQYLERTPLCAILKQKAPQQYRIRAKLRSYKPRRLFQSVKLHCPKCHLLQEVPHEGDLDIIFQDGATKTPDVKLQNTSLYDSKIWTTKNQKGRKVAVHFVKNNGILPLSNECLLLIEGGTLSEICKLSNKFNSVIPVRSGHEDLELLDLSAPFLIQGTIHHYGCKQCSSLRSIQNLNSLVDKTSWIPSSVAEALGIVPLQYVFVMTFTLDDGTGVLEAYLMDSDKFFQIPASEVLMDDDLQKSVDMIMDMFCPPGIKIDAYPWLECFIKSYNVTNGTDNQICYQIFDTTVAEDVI
In words: EMSA.

The text below walks through data of PMC6145145.

As to TTAGGGTTAGGGTTAGGG (ssDNA) [telomeric primer (TTAGGG)3], the binding result in data set [1] and in data set [2] was “binds” throughout.
